Measured values published in publication doi:10.1101/2025.09.26.678928.

Biological target: UhGpe1 (U. hordei)

Row | reporter activity in S. cerevisiae biosensor assays, percent activity | Molecule
1 | 45% | SrPit2 peptide corresponding to the U. maydis activating motif
2 | 30% | WWFGFTGSL [Pit2 core peptide (…)]
